# B1: HA-tagged APOBEC3G deletion mutant Δ309-384 (protein)
# chain: MKPHFRNTVERMYRDTFSYNFYNRPILSRRNTVWLCYEVKTKGPSRPPLDAKIFRGQVYSELKYHPEMRFFHWFSKWRKLHRDQEYEVTWYISWSPCTKCTRDMATFLAEDPKVTLTIFVARLYYFWDPDYQEALRSLCQKRDGPRATMKIMNYDEFQHCWSKFVYSQRELFEPWNNLPKYYILLHIMLGEILRHSMDPPTFTFNFNNEPWVRGRHETYLCYEVERMHNDTWVLLNQRRGFLCNQAPHKHGFLEGRHAELCFLDVIPFWKLDLDQDYRVTCFTSWSPCFSCAQEMAKFISKNKHVSLC
# B2: HA-tagged APOBEC3G deletion mutant Δ157-384 (protein)
# chain: MKPHFRNTVERMYRDTFSYNFYNRPILSRRNTVWLCYEVKTKGPSRPPLDAKIFRGQVYSELKYHPEMRFFHWFSKWRKLHRDQEYEVTWYISWSPCTKCTRDMATFLAEDPKVTLTIFVARLYYFWDPDYQEALRSLCQKRDGPRATMKIMNYDE
# B3: HA-tagged APOBEC3G deletion mutant Δ1-104 (protein)
# chain: MATFLAEDPKVTLTIFVARLYYFWDPDYQEALRSLCQKRDGPRATMKIMNYDEFQHCWSKFVYSQRELFEPWNNLPKYYILLHIMLGEILRHSMDPPTFTFNFNNEPWVRGRHETYLCYEVERMHNDTWVLLNQRRGFLCNQAPHKHGFLEGRHAELCFLDVIPFWKLDLDQDYRVTCFTSWSPCFSCAQEMAKFISKNKHVSLCIFTARIYDDQGRCQEGLRTLAEAGAKISIMTYSEFKHCWDTFVDHQGCPFQPWDGLDEHSQDLSGRLRAILQNQEN
# B4: HA-tagged APOBEC3G deletion mutant Δ1-156 (protein)
# chain: MFQHCWSKFVYSQRELFEPWNNLPKYYILLHIMLGEILRHSMDPPTFTFNFNNEPWVRGRHETYLCYEVERMHNDTWVLLNQRRGFLCNQAPHKHGFLEGRHAELCFLDVIPFWKLDLDQDYRVTCFTSWSPCFSCAQEMAKFISKNKHVSLCIFTARIYDDQGRCQEGLRTLAEAGAKISIMTYSEFKHCWDTFVDHQGCPFQPWDGLDEHSQDLSGRLRAILQNQEN
# B5: HA-tagged APOBEC3G deletion mutant Δ246-384 (protein)
# chain: MKPHFRNTVERMYRDTFSYNFYNRPILSRRNTVWLCYEVKTKGPSRPPLDAKIFRGQVYSELKYHPEMRFFHWFSKWRKLHRDQEYEVTWYISWSPCTKCTRDMATFLAEDPKVTLTIFVARLYYFWDPDYQEALRSLCQKRDGPRATMKIMNYDEFQHCWSKFVYSQRELFEPWNNLPKYYILLHIMLGEILRHSMDPPTFTFNFNNEPWVRGRHETYLCYEVERMHNDTWVLLNQRRGFLCNQ
# B6: wild-type human APOBEC3G with a fused HA tag at the C-terminus (protein)
# chain: MKPHFRNTVERMYRDTFSYNFYNRPILSRRNTVWLCYEVKTKGPSRPPLDAKIFRGQVYSELKYHPEMRFFHWFSKWRKLHRDQEYEVTWYISWSPCTKCTRDMATFLAEDPKVTLTIFVARLYYFWDPDYQEALRSLCQKRDGPRATMKIMNYDEFQHCWSKFVYSQRELFEPWNNLPKYYILLHIMLGEILRHSMDPPTFTFNFNNEPWVRGRHETYLCYEVERMHNDTWVLLNQRRGFLCNQAPHKHGFLEGRHAELCFLDVIPFWKLDLDQDYRVTCFTSWSPCFSCAQEMAKFISKNKHVSLCIFTARIYDDQGRCQEGLRTLAEAGAKISIMTYSEFKHCWDTFVDHQGCPFQPWDGLDEHSQDLSGRLRAILQNQEN
# Experiments:
# [1] = molecular target: wild-type HIV-1 Gag expressed from the hGag plasmid
# [2] = molecular target: HIV-1 Vif (virion infectivity factor)
# [3] = molecular target: mutant Gag of ZWt-p6.Vif-, in which the nucleocapsid sequence has been replaced with a yeast leucine zipper domain
# [4] = molecular target: Gag of HIV-1 BH10 expressed from BH10.P-.Vif- or BH10.FS-.Vif- proviral DNA, P03347
protein,measurement,setting,value
B1,"viral content relative to wild type APOBEC3G (Gag VLPs, Western blot)",[1],the viral content of these N-terminal fragments is >60% of wild type APOBEC3G
B2,"incorporation into Gag VLPs (APOBEC3G:Gag ratio, Western blot)",[1],deletion of the N-terminal 104 amino acids or the C-terminal 157-384 amino acids (See SEQ ID NO: 21) does not affect the ability of APOBEC3G to be packaged into Gag VLPs
same,"viral content relative to wild type APOBEC3G (Gag VLPs, Western blot)",[1],the viral content of these N-terminal fragments is >60% of wild type APOBEC3G
same,cytoplasmic expression of full-length hA3G in the presence of Vif (Western blot with anti-HA),[2],"an increase in the cytoplasmic expression of full-length hA3G was detected with an increase in expression of hA3G 1-156 or hA3G 157-384, respectively"
B3,"incorporation into Gag VLPs (APOBEC3G:Gag ratio, Western blot)",[1],deletion of the N-terminal 104 amino acids or the C-terminal 157-384 amino acids (See SEQ ID NO: 21) does not affect the ability of APOBEC3G to be packaged into Gag VLPs
B4,"incorporation into Gag VLPs (APOBEC3G:Gag ratio, Western blot)",[1],the deletion of the N-terminal 156 amino acids abolishes its incorporation into viruses
same,"reduction in the ability to be degraded by Vif (ratio of expression with and without Vif, Western blot)",[2],"the deletion of the N-terminal 156 or C-terminal 157-384 amino acids results in 80% and 90% reduction in the ability of the resulting fragments to be degraded by Vif, respectively"
B5,"viral content relative to wild type APOBEC3G (Gag VLPs, Western blot)",[1],the viral content of these N-terminal fragments is >60% of wild type APOBEC3G
B6,incorporation of APOBEC3G into Gag VLPs (Western blot of VLP lysates),[1],Gag alone is sufficient among the viral proteins for facilitating APOBEC3G incorporation
same,share of APOBEC3G in the membrane-bound fraction (sucrose floatation assay),[1],"in the presence of Gag (FIG. 5B), >90% of APOBEC3G is localized in the membrane-bound protein"
same,ability of the viruses to package APOBEC3G (Western blots of viral lysates),[3],the ability of ZWt-p6.Vif- to incorporate APOBEC3G is reduced 90% compared with BH10.FS-.Vif-
same,distribution of APOBEC3G between cytoplasm and membrane (sucrose floatation assay),[3],the majority of APOBEC3G remains in the cytoplasm even though most Gag is found at membrane
same,ability of the viruses to package APOBEC3G (Western blots of viral lysates),[4],BH10.FS-.Vif- can package APOBEC3G as efficiently as BH10.P-
